Experimental data reported in article PMC10844294.

Target: B.1.1.529 (BA.1) S1 + S2 trimer-His Recombinant Protein (SARS-CoV-2) (UniProt P0DTC2)
Assay: cryo-EM structure

**Q.** With “B.1.1.529 (BA.1) S1 + S2 trimer-His Recombinant Protein (from UniProt P0DTC2 324-533) (natural protein)” as the substance, how does the stoichiometry N read?
**A.** Its stoichiometry N is 3.
